System: K4 kissing-loop RNA reporter
Assay: apparent KD of K4 kissing-loop reporter; higher = weaker reporter binding
Conditions: Eterna round: R107
Experimental: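 RNA-MaP round R107: designed RNA switches with theophylline, tryptophan, arginine or FMN aptamers are transcribed on-chip within common flanks. They are titrated with a labelled K4 kissing-loop RNA reporter in RNA-MaP buffer (100 mM Tris pH 7.5, 80 mM KCl, 4 mM MgCl2), without ligand or with the indicated ligand. Median apparent KD per design.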

[1] = input ligand: theophylline 20 uM
[2] = input ligand: tryptophan 2.4 mM
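Further: bound reporter read as fluorescence of individual clusters on recovered sequencing chips by microscopy, with normalized cluster intensities fitted with a binding model.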

Sequence | apparent KD of K4 kissing-loop reporter (input ligand: FMN 200 uM) | apparent KD of K4 kissing-loop reporter (input ligand: arginine 13.2 mM) | apparent KD of K4 kissing-loop reporter (input ligand: none) | apparent KD of K4 kissing-loop reporter [1] | apparent KD of K4 kissing-loop reporter [2]
AUAGGAUUGCGAGGAUAUCCUUCCCACGUCGAAGUACCGUGCUUGAUGGAGUGAUGUUCGAUCAGAGGAGAAGGUGCGGUUUUGU [Same State FMN B GF24] | 292 nM | 593 nM | 942 nM | 732 nM | 944 nM
UCUGUUGUAUAUGAUACCAGCAGUGAGAGAUGAGAAGUAUAGUGAUGUUAUAUGAGAGAAUGCCCUUGGCAGCGUGUGCGUGUGG [SSTheophylB.aC] | 105 nM | 98.3 nM | 83.2 nM | 100 nM | 76.9 nM
UGUUAUGUAUCAGGAUAUUAGUGAUGUUUGUUGAUGUUAGUGAUGUUGAUAUUUGUUUUAUGUAUUUAAGAAGGGAUUGAGAUGU [ooilmullin] | 53.9 nM | 19.2 nM | 38.7 nM | 27.8 nM | 41.4 nM
UGGUUUAACUGAAGGAGCGGCAAUUGAUAAGUAGAUAUAGUGAUGUUAUAUAAGAUAGAGAGCCAGGUAGGUCGCAGAGGUAUUU [ExArgB.P] | 215 nM | 218 nM | 212 nM | 248 nM | 197 nM
CUGACUAAAUAGUCAGUGAUGUUGACUGGACGAGGACCGGUACGGCCGCCACUCGAGAGUGGUGUAAUAUAUGUCAUAUAGUCAA [Tryp A SS t3] | 517 nM | 258 nM | 436 nM | 423 nM | 233 nM
GGUUUAUAGGAGGAUACCAGUACGGAUAAAGUACGUUAAUAGUAGAGUGAUGUUCUAAAGUACCCUUGGCAGCUUAGAGUGAGUG [ExTheophylB.M] | 98.6 nM | 164 nM | 136 nM | 182 nM | 94.3 nM
AGGAGCGUGCGAUGCAAAUCGCACGCUCCUCGAGGACCGGUACGGCCGCCACUCGCUCGCGCCGAGUGAUGUUCGGCCGGCGAAC [#2 Same State - Tryptophan A Attempt #10 (HarryS)] | 266 nM | 236 nM | 265 nM | 289 nM | 452 nM
UGGAGUUGACGAAAAGUCAACUCCAGAGAAGGAGCGGACGAAAGUCCAGGUAGGUCGCUCACUACCAGUGAUGUUGGUACUAAAA | 167 nM | 190 nM | 204 nM | 204 nM | 181 nM
GAAAGAAAGUAUGAUACCAGACACCCGAGUGAUGUUCGGAGCAGAGUGAUGUUCUUUUAAGUCCCUUGGCAGCAUAAAAGAAAAG [whbob_SS_Theo_B_sa83] | 192 nM | 219 nM | 238 nM | 294 nM | 166 nM
AGCAAUAUCACGGCCGCCACUGAAUAUUGUUUUUAUAUUUAGAAAUCUUGCCAGUGAUGUUGGUUCAGGACCGGGUGAGUUAAUA [JR_SSTryptoB_Sub005] | 435 nM | 430 nM | 466 nM | 450 nM | 401 nM
AUGUCUUAUAAACUCAUGGUUUCGAUCGAUACCAGUAGCGAGAGUUACCCUUGGCAGCGACAUGAGUGAUGUUCAUGUACGAAGA [KL-XTheoA5] | 109 nM | 98.7 nM | 103 nM | 106 nM | 90 nM
AUUUAGACGAGUGAUGUUCGUGAUUUUUCAGAGGAUAUGCGUAAUAGCAGAAGGCUGUAUUUAUAUAUAUUUUGAUUUUUUUAAA [JR_ExcFMNA_Sub009] | 69.6 nM | 81.6 nM | 59.5 nM | 82.8 nM | 62.3 nM
UGAUACCAGACGGCCGCCACUACACCAGUCAAAGACUGGAUGUGAAAUUCGACCAGUGAUGUUGGUAGGACCGGGUCUGGUAUCU [TrypBX 8 #SwitchBubble #StaticStem] | 383 nM | 313 nM | 379 nM | 347 nM | 591 nM
AAAAUAAACCAGUGAUGUUGGUGUCCAGAUACCAGCGGUAAAAUCCGCCCUUGGCAGCUGUGGACGUACAAAAUAAGUACGUCCU [MatMod 4 - Jieux - Same State - Theophylline A] | 430 nM | 321 nM | 463 nM | 286 nM | 358 nM
UUUCCAGAUAAGUGGGAACACUCCAUAACAGAGGAUAUCAGAGCGCUGAGAAGGCUGUUUAUCAGUGAUGUUGAUAGUGUGGAGU [FMN A SS t2a] | 171 nM | 660 nM | 671 nM | 786 nM | 630 nM
GCGCGUCAUGUCAGCGGUGACACUGUCGAUACCAGCGCCGGAAGGCGCCCUUGGCAGCGACGUGCUGGAGUGAUGUUCCAGCGUC [#2 Exclusion - Theophylline A Attempt #21 (HarryS)] | 177 nM | 107 nM | 140 nM | 130 nM | 134 nM
ACGUCCGGAUUGAUCGUGGGCAUGGUCGAUACCAGUAGUUUAAUCUACCCUUGGCAGCGACAUGAGUGAUGUUCAUGUGCGGUGA [#14 K4 Theophylline A Exclusion] | 194 nM | 191 nM | 188 nM | 402 nM | 200 nM
CCAAUCUGUUACGAUACCAGUCAAAGAUAUUUUAUCAAUGCCCUCACCGAGUGAUGUUCGGACCCUUGGCAGCGUCUGGGAUAGG [ddfcmullin] | 165 nM | 142 nM | 186 nM | 165 nM | 149 nM
UUUUUGGAGAAUUAUAGUGAUGUUAUGAAGGAGGAUAUCUGGAGAUGGAGAAGGCCUAGUGGCUCAGCCCUCGCGGGUGGGUGGG [ExFMNA.aD] | 667 nM | 518 nM | 456 nM | 530 nM | 426 nM
UGACUGGAUGGAAGGAGCGCUAAACUCCUAGUGAUGUUAGGGAAAUGAGGCAAAGCCUCGAGGCAGGUAGGUCGCCAUCUAGUCU [FiskerMod 18 - Jieux - Same State - Arginine B] | 160 nM | 121 nM | 155 nM | 148 nM | 144 nM
GGUAGCAUGGCGGCCGCCACUAUCCUUCAUGGUUGACAUUAAGGAUAGCAUAGUGAUGUUAUGAAUAGGACCGGGCCAUGCUACC | 175 nM | 136 nM | 163 nM | 137 nM | 149 nM

Sequence | apparent KD of K4 kissing-loop reporter (input ligand: FMN 200 uM) | apparent KD of K4 kissing-loop reporter (input ligand: arginine 13.2 mM) | apparent KD of K4 kissing-loop reporter (input ligand: none) | apparent KD of K4 kissing-loop reporter [1] | apparent KD of K4 kissing-loop reporter [2]
GGAUAGGAUAGAGGAUAUGGAGAACACAAAAGUGACUUGUUGUGUUUAUCCAUAGGGAGUGAUGUUCCAGAAGGCUGUCCUAUCG [MatMod 24 - Jieux - Exclusion - FMN B] | 296 nM | 178 nM | 201 nM | 183 nM | 156 nM
AUUGUACAGGGAAGGAGCGUCGACCAGUGAUGUUGGAGUUAAAUACCAGUGAUGUUGGUUAGGCAGGUAGGUCGCCCUCAAGUAG [#10 K4 Arginine B Exclusion] | 180 nM | 126 nM | 141 nM | 219 nM | 118 nM
UUUGGUUUCUCGGCCGCCACUCGUUGGUAAUGGGCCUCAGGGAUAUAGUGAUGUUAUGUAAAGAAGAGGACCGGGAGAAGGAAGG [ExTryptoB.Dn] | 235 nM | 229 nM | 303 nM | 267 nM | 156 nM
UGUAUGUGAUUUGAUACCAGACCAGCUGGUGUUUCAAGAGUGAUGUUCUUGUAGGUUUGGGUCCCUUGGCAGCAAAUCGCAUACU [KL-SSTheoB15] | 159 nM | 122 nM | 152 nM | 122 nM | 131 nM
UGUCAUUGGUCGGCCGCCACUUUAUAUGGAGUGAUGUUUUGUAAAUUGUGUUGAAAGGUGUGGUAAAGGACCGGGACCGAUGACU [FiskerMod 26 - Jieux - Same State - Tryptophan B] | 1030 nM | 637 nM | 931 nM | 727 nM | 651 nM
CGCGUACAGUGUUCUACGGCCGAGAGUGAUACCAGCCGUAUUUGUGGCCCUUGGCAGCGCAGAUGCAGUGAUGUUGCAUACUUGG [Same State Theophylline A GF 21] | 98.6 nM | 139 nM | 135 nM | 149 nM | 85.4 nM
AAGUGUCAUUAGACACACCGAUGUAUAAACUAGGAUAUGCUGAUAAGCAGAAGGAGUGAUGUUCCUUUCAUCAUCGGAAUUAAAU [#06 K4 FMN A Exclusion] | 301 nM | 161 nM | 160 nM | 175 nM | 144 nM
UGCGCUGUGUCCUAAAAUGUCCUCCGGGAUACCAGAGUCUUUUUAUUCCCUUGGCAGCUUGAGUGAUGUUUGAUGCCGUUCUUGU [xxbxymullin] | 811 nM | 478 nM | 790 nM | 519 nM | 607 nM
GGUGCUGUCUGUGCCGCCCUCCUCGUCCCUCGAGGACCGGUACGGCCGCCACUCGAGUGAUGUUCGGGUAGCCAUCCCUGCCAGC [BDazzled - #20 Exc. Tryptophan A] | 527 nM | 328 nM | 431 nM | 341 nM | 322 nM
AUUCCCACUUAAGGAUAUCAAGGAGUGAUGUUCCAAAUGGUCCACGUCGCGGCUCUCCGGGCACAAUGAGAAGGUAAAGCUGGGU [theeternabot_exclusion_KL_FMN_B_43] | 278 nM | 275 nM | 276 nM | 370 nM | 210 nM
AACCGUGUGGCGGCCGCCACUAGUCUCCAGUGAUGUUGGAGAGACCACGUAAGUGGUCUCCAACAUAGGACCGGGCCAUAUGGAA [Same State - Tryptophan B (Freestyle 26)] | 204 nM | 78.5 nM | 106 nM | 132 nM | 259 nM
GCAGUGAUGUUGCACGAGUAGGCUAGAGUACGAGGACCGGUACGGCCGCCACUCGUACGGAAGUCGCUAAUUUAUGGAAUGGUGA [#05 K4 Tryptophan A Same State] | 713 nM | 473 nM | 548 nM | 455 nM | 435 nM
GCGCGUCAUGUCAGCGGUGACUAUGUCGAUACCAGCAGGGAAACCUGCCCUUGGCAGCGACGCGCUGGAGUGAUGUUCCGACGGC [#2 Exclusion - Theophylline A Attempt #8 (HarryS)] | 165 nM | 153 nM | 154 nM | 173 nM | 145 nM
GGAUAGGACAGAGGAUAUCUCUGAGGCAAGAAAACUUGUCUCUAAAGAGAUGACUCAGUGAUGUUGGGAGAAGGCUGUCCUAUCG [FmnBX 10 - #SwitchBubble #StaticStem] | 202 nM | 139 nM | 141 nM | 167 nM | 125 nM
GAUCAUAGCACGGCCGCCACUGAUAUGCCGUGCUAUACGAGUGAUGUUCGUAAUUAUACGGGUAUCAGGACCGGGUGCAACGGUA [Tryp B SS t2] | 149 nM | 89.3 nM | 113 nM | 167 nM | 112 nM
AGCGGCCAGUCGGCCGCCACUCCGGGCAGUGAUGUUGCGAAGUGUCUACUAGAGUGAUGUUCUAAGAGGACCGGGACUGACGUAU [Exclusion Tryptophan B Gf 11] | 434 nM | 394 nM | 534 nM | 476 nM | 332 nM
GAUUUAGAGGCGGCCGCCACUAGUGAUGUUAGUGAUGUUUGAUACUGAAUAUAUCUGCGUGUAGAUAGGACCGGGCCAGAUGGAG [eyerullin] | 210 nM | 171 nM | 186 nM | 184 nM | 180 nM
ACGUCCGGAUUAAUCGUGGGCAUGGUCGAUACCAGAUCUUUAAUGAUCCCUUGGCAGCGACAUGAGUGAUGUUCAUGUGCGAUGA [KL-XTheo-A8 #analogue] | 188 nM | 152 nM | 186 nM | 244 nM | 179 nM
AGGUUUUGAUUAGGAUAUGCACUGACGAUGAGAAUAUAGUGAUGUUAUAUACUACGAAUUAGUAGAGUAGAAGGGAUUGAGGUUU [SSFMNB.Z] | 568 nM | 338 nM | 414 nM | 459 nM | 335 nM
AAAUAAAAGGCGGCCGCCACUGAACGCCUCCGCGUGGGUAUAUAGUGAUGUUAUAUGGCCGCCUUCAGGACCGGGCCAAAUAAAA [AstrosSSTryB#1] | 458 nM | 220 nM | 339 nM | 274 nM | 373 nM
AAGCAGUCACUCGAACCCAUCGAAGAUGGGCGAGGACCGGUACGGCCGCCACUCGGAGUGAUGUUCCGCAGACUGCAAAAUAAAA | 679 nM | 265 nM | 339 nM | 249 nM | 164 nM
